Laboratory results from patent US20140302041A1 (ORIBASE PHARMA, published 2014).

Columns and labels:
[1] = target: human Axl extracellular domain fused to human Fc domain (hAxl-hFc protein; R&D system) (human) (UniProt P30530); assay: SPR (BIAcore), hAxl-hFc amine-coupled to a CM5 chip; 20G7-D9 (666 nM by the text) injected second, without removing Gas6, upper panel
human Mer-Fc = target: T1, human Mer-Fc (human, UniProt Q12866 26-499, limits assumed); assay: ELISA, plates with human Mer-Fc, HRP-conjugated anti-mouse IgG, OD 450 nm
T1 construct: also called h-Mer; not shown: Fc part
T1 sequence (looked up): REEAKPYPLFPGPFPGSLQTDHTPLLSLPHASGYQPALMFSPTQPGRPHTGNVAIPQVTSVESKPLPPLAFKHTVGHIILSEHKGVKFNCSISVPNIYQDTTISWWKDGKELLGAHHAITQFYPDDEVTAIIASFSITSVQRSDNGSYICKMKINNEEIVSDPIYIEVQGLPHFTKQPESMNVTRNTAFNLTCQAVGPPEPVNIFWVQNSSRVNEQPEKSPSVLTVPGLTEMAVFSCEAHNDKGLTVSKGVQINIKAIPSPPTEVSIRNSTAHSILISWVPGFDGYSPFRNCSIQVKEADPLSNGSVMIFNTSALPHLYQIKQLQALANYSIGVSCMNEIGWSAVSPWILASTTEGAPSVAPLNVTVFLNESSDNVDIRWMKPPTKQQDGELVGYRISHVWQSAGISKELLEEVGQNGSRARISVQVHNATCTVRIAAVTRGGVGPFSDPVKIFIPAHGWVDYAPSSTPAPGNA
Procedure: (§1) FIG. 1: ELISA experiments to investigate the affinity and the specificity of mouse monoclonal antibodies against hAxl.
(§2) For cross reaction assay, coated plates were incubated with human Axl-Fc (h-Axl), mouse Axl-Fc (m-Axl) or human Mer-Fc (h-Mer), Tyro-3-Fc (h-Tyro-3) for 1 hour at 37° C. and washed four times in PBST. Plates were incubated with anti-Axl mAbs (2 hours at 37° C.) and washed four times in PBST. Plates were incubated with HRP-conjugated anti-mouse IgG (Sigma) at a 1:2000 dilution in PBST, 1% BSA (1 hour at 37° C.). Finally, an ortho-phenylenediamine solution (Sigma) was added for 30 min at room temperature in the dark and the absorbance was measured at 450 nm.

[2] = target: T2, human Axl on the cell surface (A549 cells; pancreatic cancer cell lines) (human, UniProt P30530 26-894); assay: flow cytometry on A549 cells, fluorescein-conjugated anti-mouse IgG
T2 construct: whole, on cells; also called cell surface Axl; Axl receptor
T2 sequence (looked up): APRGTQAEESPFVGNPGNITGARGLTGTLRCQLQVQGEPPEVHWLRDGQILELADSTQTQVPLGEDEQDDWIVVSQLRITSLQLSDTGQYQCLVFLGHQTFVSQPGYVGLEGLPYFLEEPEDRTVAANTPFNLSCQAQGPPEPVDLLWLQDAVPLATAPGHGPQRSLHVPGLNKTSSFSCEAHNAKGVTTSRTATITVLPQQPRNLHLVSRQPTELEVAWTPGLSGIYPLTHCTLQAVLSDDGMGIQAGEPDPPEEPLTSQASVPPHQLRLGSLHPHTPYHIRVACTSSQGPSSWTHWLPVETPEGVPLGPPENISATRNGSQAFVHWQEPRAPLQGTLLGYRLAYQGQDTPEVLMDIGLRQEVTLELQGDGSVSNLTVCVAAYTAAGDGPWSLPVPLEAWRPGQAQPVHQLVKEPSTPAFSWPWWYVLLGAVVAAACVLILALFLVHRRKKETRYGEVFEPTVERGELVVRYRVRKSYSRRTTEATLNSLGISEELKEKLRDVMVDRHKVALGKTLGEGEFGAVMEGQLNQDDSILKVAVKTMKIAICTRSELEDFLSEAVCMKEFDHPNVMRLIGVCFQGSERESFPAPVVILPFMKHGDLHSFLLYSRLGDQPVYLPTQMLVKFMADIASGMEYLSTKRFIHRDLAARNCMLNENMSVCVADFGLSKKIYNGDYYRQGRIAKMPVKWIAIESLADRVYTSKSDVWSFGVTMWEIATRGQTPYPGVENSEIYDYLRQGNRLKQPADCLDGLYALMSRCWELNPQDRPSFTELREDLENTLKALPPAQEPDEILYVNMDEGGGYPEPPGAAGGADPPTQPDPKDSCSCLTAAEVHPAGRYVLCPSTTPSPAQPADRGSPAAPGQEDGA
Procedure: FIG. 2: Flow cytometry analysis of cell surface Axl in A549.
The ability of mouse anti-Axl monoclonal antibodies of the invention to specifically recognize Axl expressing cells was determined by FACS using standard techniques. Briefly, A549 cells (ATCC number: CCL-185) were harvested, stained with purified mouse anti-Axl monoclonal antibodies of the invention at 4° C. for 1 hour, washed three times in PBS-BSA 0.1%, and then stained with fluorescein-conjugated anti-mouse IgG (1:50) (Sigma) at 4° C. in the dark for 45 min. Samples were analyzed on EPICS flow cytometer (Beckman-Coulter, Fullerton, Calif.).

mouse Axl-Fc = target: T3, mouse Axl-Fc (mouse, UniProt Q00993 20-443, limits assumed); assay: ELISA, plates with mouse Axl-Fc, HRP-conjugated anti-mouse IgG, OD 450 nm
T3 construct: also called m-Axl; not shown: Fc part
T3 sequence (looked up): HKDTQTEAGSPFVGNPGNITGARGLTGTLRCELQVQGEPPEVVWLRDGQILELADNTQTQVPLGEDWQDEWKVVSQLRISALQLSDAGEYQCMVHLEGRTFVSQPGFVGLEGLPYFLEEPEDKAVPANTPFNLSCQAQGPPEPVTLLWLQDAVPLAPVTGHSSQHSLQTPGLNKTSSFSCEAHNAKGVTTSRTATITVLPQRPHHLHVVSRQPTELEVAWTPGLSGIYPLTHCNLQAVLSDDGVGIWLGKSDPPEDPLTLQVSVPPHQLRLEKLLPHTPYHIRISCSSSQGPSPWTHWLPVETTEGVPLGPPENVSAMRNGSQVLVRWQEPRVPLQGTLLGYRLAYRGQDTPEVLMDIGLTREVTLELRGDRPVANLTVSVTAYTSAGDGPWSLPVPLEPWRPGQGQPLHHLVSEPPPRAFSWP
Procedure: as §1, §2

[3] = target: human Axl extracellular domain fused to human Fc domain (hAxl-hFc protein; R&D system) (human) (UniProt P30530); assay: SPR (BIAcore 3000), hAxl-hFc amine-coupled on CM5 chip, mAb injected at 2 to 133 nM, 25 °C, 1:1 Langmuir model; hAxl-hFc on the CM5 chip, mAb injected at 2 to 133 nM, 25 C
Tyro-3-Fc (h-Tyro-3) = target: T4, Tyro-3-Fc (h-Tyro-3) (human, UniProt Q06418 41-428, limits assumed); assay: ELISA, plates with human Tyro-3-Fc, HRP-conjugated anti-mouse IgG, OD 450 nm
T4 construct: The species is read from the label 'h-Tyro-3'; also called human Tyro-3-Fc; not shown: Fc part
T4 sequence (looked up): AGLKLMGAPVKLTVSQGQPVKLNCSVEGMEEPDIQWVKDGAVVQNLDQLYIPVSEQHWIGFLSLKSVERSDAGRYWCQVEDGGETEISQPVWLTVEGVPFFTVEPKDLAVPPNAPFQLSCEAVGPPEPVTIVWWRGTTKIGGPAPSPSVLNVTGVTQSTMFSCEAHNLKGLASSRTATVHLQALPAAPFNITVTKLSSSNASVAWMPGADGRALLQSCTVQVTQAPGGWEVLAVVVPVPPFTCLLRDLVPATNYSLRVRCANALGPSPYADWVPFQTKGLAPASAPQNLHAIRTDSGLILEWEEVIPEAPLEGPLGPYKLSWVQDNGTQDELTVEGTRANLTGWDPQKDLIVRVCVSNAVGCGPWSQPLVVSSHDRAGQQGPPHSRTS
Procedure: as §1, §2

[4] = target: human Axl extracellular domain fused to human Fc domain (hAxl-hFc protein; R&D system) (human) (UniProt P30530); assay: SPR (BIAcore), hAxl-hFc amine-coupled to a CM5 chip; 20G7-D9 (666 nM by the text) injected first, lower panel

- response (RU) [1]: 2280 RU
- binding result (human Mer-Fc): no binding
- binding result [2]: binds
- binding result (mouse Axl-Fc): no binding
- Kd [3]: 53 nM
- binding result (Tyro-3-Fc (h-Tyro-3)): no binding
- response (RU) [4]: 2530 RU
B1: mouse anti-Axl monoclonal antibody 20G7-D9 (antibody, V domains shown)
VH: QVQLQQSGAELMKPGASVKMSCKAAGYTFSSYWIEWVRQRPGHGLEWIGEIFPGSDSTNYNEKFNDRATFTADTSSNTAYMQLSSLTSEDSAVYYCARPLYYGSSAWFAYWGQGTLVTVSA
VL: DIQMTQSPASLSASVGETVTITCRASENIYSYLTWYQQKQRKSPQLLVYNAKTLAEGVPSRFSGSGSGTQFSLKINSLQPEDFGTYYCQHHYATPWTFGGGTKVEIK
notes: the irrelevant control Px is called 'murine IgG1 isotype mAb'; also called mAb 20G7-D9; mAb 20G7D9
